Test results from article PMC8591539 (The EMBO Journal, 2021).

Biological target: RBX1 (human, UniProt P62877 1-108)
Test: cryo-EM structure

- binding result: binds
B1: DDB1- and CUL4-associated factor 1 (DCAF1), full length, wild type (natural protein)
chain: not shown
